For one experiment, the target named is T1, HLA-C*07:02 (human).
T1 construct: whole, on cells; MHC class I on a monoallelic cell line
The experiment is described as follows: HLA-I IP (W6/32) and targeted MS of monoallelic HMy2.C1R cells expressing the polyantigen cassette.

The target of another experiment is T2, HLA-C*07:01 (human).
T2 construct: whole, on cells; MHC class I on a monoallelic cell line
The experiment is described as above.

The target in a further experiment is T3, HLA-C*06:02 (human).
T3 construct: whole, on cells; MHC class I on a monoallelic cell line
Described as above.

The next experiment deals with T4, HLA-A*02:01 (human).
T4 construct: whole, on cells; MHC class I on a monoallelic cell line (HMy2.C1R)
Put plainly: HLA-I IP and untargeted MS of monoallelic cells.

For KRNSLALSL, the binding result with HLA-C*07:02, in the experiment with HLA-C*07:01 and with HLA-C*06:02 was “binds” in each case.
Regarding IMSDSNYVV, the binding result with HLA-A*02:01 was “binds”.
